Laboratory results: US20240287484

Tests used:
Conditions in all cases: qPCR; 3 mM MgCl2, 37 C
[1] = system: T1, MG153-26 RT (uncultivated organism (metagenomic))
T1 sequence: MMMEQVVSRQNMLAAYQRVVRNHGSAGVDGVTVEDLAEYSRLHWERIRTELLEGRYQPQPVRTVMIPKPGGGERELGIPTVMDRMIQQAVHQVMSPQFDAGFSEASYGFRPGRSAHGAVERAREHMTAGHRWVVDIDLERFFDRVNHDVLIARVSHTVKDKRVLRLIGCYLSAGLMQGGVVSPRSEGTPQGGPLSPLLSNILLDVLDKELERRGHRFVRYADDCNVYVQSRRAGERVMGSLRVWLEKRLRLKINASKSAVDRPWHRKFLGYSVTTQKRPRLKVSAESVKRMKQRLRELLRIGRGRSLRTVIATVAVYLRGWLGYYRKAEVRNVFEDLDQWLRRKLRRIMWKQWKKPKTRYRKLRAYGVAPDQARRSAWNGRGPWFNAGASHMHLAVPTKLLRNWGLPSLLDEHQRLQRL

[2] = system: T2, MG153-55 RT (uncultivated organism (metagenomic))
T2 sequence: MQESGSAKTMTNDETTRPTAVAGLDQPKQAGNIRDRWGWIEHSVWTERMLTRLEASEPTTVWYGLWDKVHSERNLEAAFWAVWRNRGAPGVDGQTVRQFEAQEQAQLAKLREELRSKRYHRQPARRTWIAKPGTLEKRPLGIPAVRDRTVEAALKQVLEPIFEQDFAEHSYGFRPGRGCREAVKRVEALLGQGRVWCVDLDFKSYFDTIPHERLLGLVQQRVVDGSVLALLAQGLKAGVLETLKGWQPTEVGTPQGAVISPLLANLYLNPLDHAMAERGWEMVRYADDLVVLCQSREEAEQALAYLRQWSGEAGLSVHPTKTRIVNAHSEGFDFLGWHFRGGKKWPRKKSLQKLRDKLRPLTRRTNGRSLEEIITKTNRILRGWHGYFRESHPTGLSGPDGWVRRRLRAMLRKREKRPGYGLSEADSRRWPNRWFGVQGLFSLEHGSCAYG

[3] = system: T3, MG153-40 RT (uncultivated organism (metagenomic))
T3 sequence: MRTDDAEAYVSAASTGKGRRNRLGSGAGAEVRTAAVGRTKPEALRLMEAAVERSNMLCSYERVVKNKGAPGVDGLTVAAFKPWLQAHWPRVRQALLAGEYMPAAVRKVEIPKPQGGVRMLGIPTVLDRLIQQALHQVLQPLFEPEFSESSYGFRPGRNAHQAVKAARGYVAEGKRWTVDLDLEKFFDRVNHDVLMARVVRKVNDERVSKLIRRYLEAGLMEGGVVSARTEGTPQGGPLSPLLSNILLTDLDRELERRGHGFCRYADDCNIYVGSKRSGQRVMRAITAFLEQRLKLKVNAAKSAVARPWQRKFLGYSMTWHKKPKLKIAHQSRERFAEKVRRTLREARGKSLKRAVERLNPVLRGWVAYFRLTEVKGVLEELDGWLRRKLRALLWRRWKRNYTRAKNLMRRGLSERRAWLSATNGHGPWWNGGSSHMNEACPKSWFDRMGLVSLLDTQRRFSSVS

[4] = system: T4, MG153-17 RT (uncultivated organism (metagenomic))
T4 sequence: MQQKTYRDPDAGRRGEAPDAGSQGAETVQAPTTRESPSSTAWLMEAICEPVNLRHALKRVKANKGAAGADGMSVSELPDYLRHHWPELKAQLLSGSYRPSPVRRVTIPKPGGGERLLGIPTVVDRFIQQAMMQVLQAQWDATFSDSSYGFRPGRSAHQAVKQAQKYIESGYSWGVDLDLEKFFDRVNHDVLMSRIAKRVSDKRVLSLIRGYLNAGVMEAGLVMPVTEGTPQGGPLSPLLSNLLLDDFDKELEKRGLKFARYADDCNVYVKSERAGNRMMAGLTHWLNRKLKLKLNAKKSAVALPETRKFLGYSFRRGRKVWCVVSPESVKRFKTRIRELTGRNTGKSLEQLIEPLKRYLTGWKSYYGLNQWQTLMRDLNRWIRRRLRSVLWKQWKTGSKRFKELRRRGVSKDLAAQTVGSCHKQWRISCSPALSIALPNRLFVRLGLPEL

[5] = system: T5, MG153-7 RT (uncultivated organism (metagenomic))
T5 sequence: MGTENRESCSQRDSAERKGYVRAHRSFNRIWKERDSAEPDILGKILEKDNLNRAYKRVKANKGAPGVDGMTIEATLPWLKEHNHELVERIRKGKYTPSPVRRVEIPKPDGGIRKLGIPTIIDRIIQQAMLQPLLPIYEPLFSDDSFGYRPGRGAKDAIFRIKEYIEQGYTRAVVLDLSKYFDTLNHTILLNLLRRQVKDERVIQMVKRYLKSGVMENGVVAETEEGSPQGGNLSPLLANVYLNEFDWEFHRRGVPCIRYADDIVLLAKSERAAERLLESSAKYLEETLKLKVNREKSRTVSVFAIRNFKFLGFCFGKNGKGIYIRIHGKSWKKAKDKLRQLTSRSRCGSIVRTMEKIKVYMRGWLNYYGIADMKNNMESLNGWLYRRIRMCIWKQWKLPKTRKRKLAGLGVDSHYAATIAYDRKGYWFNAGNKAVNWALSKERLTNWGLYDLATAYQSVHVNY

[6] = system: T6, MG153-27 RT (uncultivated organism (metagenomic))
T6 sequence: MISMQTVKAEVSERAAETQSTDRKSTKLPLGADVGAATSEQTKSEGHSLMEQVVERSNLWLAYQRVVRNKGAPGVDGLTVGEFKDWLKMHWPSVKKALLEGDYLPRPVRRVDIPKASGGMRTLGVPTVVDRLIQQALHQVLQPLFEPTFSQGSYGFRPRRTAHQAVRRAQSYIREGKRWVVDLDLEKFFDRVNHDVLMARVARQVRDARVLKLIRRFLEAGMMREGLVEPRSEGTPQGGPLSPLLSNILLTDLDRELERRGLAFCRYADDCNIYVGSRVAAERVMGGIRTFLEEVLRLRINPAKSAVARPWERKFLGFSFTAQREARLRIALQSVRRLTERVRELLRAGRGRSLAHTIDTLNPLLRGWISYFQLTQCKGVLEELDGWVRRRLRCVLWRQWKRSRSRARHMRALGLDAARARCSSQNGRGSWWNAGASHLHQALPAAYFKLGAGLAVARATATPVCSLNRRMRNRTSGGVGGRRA

Measured: activity (fold over background)

200 nt RNA template annealed to DNA primer
> 10: all assays above
